In patent publication US20240279288A1, “APPLICATION OF PLANT JAZ PROTEINS AND DERIVED POLYPEPTIDES IN PREVENTION AND TREATMENT OF HUMAN AND ANIMAL TUMORS” (ANYANG INSTITUTE OF SINO-COTTON INDUSTRY INNOVATION, priority 2021, published 2024):

What was measured:
Assay type in all cases: binding, cotton
GhMYC2 [1] = assay: Yeast two hybrid with GhMYC2
Method: (§1) The study on Arabidopsis had shown that the inhibition of JAZ protein on JA signaling was mainly achieved by inhibiting the transcription factor function of MYC, which had been experimentally verified by us in cotton. Based on the phylogenetic tree of Arabidopsis and cotton JAZs, we screened 6 cotton JAZs (GhJAZ1, GhJAZ7, GhJAZ9, GhJAZ10, GhJAZ11 and GhJAZ31), which were analyzed with GhMYC2, GhNINJA, GhTPL, GhHDA6, and GhCOI1 for yeast two hybrid. The amino acid sequence of GhJAZ1 was set forth in SEQ ID No. 4, and the corresponding encoding gene sequence was set forth in SEQ ID No. 39; the amino acid sequence of GhJAZ7 was set forth in SEQ ID No. 7, and the corresponding encoding gene sequence was set forth in SEQ ID No. 42; the amino acid sequence of GhJAZ9 was set forth in SEQ ID No. 2, and the corresponding encoding gene sequence was set forth in SEQ ID No. 37; the amino acid sequence of GhJAZ10 was set forth in SEQ ID No. 3, and the corresponding encoding gene sequence was set forth in SEQ ID No. 38; the amino acid sequence of GhJAZ11 was set forth in SEQ ID No. 5, and the corresponding encoding gene sequence was set forth in SEQ ID No. 40; and the amino acid sequence of GhJAZ31 was set forth in SEQ ID No. 9, and the corresponding encoding gene sequence was set forth in SEQ ID No. 44. The amino acid sequence of GhMYC2 was set forth in SEQ ID No. 71, and the corresponding encoding gene sequence was set forth in SEQ ID No. 72; the amino acid sequence of GhNINJA was set forth in SEQ ID No. 73, and the corresponding encoding gene sequence was set forth in SEQ ID No. 74; the amino acid sequence of GhTPL was set forth in SEQ ID No. 75, and the corresponding encoding gene sequence was set forth in SEQ ID No. 76; the amino acid sequence of GhHDA6 was set forth in SEQ ID No. 77, and the corresponding encoding gene sequence was set forth in SEQ ID No. 78; and the amino acid sequence of GhCOI1 was set forth in SEQ ID No. 79, and the corresponding encoding gene sequence was set forth in SEQ ID No. 80. […]

GhMYC2 [2] = assay: Luciferase experiment in tobacco leaves with GhMYC2; details: no fluorescence on the control
Text: Method of the luciferase experiment: GhJAZ1 (corresponding encoding gene sequence set forth in SEQ ID No. 39) was subcloned into pCAMBIA-CLuc vector (Chen, H., et al. “Firefly Luciferase Complementation Imaging Assay for Protein-Protein Interactions in Plants.” Plant Physiology 146.2(2008):368-376.) between KpnI and SalI cleavage sites, and the transcription factors such as GhMYC2 (corresponding encoding gene sequence set forth in SEQ ID No. 72), GhNINJA (corresponding encoding gene sequence set forth in SEQ ID No. 74), and GhCOI1 (corresponding encoding gene sequence set forth in SEQ ID No. 80) were subcloned into pCAMBIA-NLuc (Chen, H., et al. “Firefly Luciferase Complementation Imaging Assay for Protein-Protein Interactions in Plants.” Plant Physiology 146.2(2008):368-376.) between KpnI and SalI cleavage sites, respectively. […] Luciferase substrates were applied at the infected leaves before taking images and placed in a dark room for at least 6 min to quench fluorescence, followed by observation on the Nightowl-II LB983 instrument, using IndigoBasic software under the luciferase-5 min setting conditions.

GhNINJA = assay: Yeast two hybrid with GhNINJA
Method: as §1, with “44.” for “44. The amino acid sequence of GhMYC2 was set forth in SEQ ID No. 71, and the corresponding encoding gene sequence was set forth in SEQ ID No. 72; the amino acid sequence of GhNINJA was set forth in SEQ ID No. 73, and the corresponding encoding gene sequence was set forth in SEQ ID No. 74; the amino acid sequence of GhTPL was set forth in SEQ ID No. 75, and the corresponding encoding gene sequence was set forth in SEQ ID No. 76; the amino acid sequence of GhHDA6 was set forth in SEQ ID No. 77, and the corresponding encoding gene sequence was set forth in SEQ ID No. 78; and the amino acid sequence of GhCOI1 was set forth in SEQ ID No. 79, and the corresponding encoding gene sequence was set forth in SEQ ID No. 80.”

GhCOI1 = assay: Yeast two hybrid with GhCOI1; details: in the presence of JA-Ile
Method: as §1

GhTPL = assay: Yeast two hybrid with GhTPL
Method: as §1

Sequence of GhMYC2 (as listed by the source): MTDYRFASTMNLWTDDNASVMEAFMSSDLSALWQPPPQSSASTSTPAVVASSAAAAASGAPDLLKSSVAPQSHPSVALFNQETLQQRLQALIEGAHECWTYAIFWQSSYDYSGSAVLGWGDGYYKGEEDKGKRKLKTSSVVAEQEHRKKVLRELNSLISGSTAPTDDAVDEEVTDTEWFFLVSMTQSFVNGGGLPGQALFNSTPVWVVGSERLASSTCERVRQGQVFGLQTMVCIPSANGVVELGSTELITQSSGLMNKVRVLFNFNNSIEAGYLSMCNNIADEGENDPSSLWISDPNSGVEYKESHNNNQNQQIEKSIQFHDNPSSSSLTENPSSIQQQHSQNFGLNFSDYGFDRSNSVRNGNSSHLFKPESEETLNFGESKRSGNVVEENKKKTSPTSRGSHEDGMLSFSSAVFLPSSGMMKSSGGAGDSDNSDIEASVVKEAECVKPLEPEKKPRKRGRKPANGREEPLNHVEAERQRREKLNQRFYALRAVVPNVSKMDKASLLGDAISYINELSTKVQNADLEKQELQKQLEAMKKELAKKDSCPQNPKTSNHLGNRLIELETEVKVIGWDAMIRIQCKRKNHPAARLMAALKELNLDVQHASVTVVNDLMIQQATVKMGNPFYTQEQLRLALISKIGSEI
Sequence of GhCOI1 (as listed by the source): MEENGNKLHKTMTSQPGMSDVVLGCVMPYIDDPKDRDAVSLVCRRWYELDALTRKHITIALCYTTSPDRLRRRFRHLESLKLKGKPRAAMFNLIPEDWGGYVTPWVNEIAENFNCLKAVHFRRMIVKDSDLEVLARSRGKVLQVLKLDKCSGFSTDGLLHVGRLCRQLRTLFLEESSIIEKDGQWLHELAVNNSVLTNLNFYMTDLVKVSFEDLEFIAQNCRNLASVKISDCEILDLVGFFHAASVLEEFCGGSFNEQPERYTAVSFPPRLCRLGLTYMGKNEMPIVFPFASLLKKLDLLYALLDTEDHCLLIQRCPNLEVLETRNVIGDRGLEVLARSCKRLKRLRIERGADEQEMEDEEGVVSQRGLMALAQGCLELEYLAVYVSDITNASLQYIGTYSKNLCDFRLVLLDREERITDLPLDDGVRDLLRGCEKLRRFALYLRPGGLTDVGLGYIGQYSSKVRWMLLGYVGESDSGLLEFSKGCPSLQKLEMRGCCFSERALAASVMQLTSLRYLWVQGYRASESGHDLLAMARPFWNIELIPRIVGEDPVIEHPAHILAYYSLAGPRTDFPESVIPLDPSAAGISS
Sequence of GhNINJA (as listed by the source): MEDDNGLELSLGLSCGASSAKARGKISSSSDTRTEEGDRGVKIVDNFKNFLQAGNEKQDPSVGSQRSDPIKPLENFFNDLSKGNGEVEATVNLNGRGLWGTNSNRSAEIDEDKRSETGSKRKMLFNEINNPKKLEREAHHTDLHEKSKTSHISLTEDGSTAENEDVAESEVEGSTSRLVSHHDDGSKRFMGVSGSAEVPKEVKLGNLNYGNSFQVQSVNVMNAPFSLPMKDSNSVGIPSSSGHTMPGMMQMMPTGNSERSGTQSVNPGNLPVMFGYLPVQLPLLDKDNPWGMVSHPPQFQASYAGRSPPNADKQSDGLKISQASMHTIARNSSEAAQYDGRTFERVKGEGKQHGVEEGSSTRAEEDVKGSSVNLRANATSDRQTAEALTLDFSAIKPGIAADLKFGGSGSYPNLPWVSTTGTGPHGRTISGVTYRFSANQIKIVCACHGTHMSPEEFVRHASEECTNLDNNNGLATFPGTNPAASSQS
Sequence of GhTPL (as listed by the source): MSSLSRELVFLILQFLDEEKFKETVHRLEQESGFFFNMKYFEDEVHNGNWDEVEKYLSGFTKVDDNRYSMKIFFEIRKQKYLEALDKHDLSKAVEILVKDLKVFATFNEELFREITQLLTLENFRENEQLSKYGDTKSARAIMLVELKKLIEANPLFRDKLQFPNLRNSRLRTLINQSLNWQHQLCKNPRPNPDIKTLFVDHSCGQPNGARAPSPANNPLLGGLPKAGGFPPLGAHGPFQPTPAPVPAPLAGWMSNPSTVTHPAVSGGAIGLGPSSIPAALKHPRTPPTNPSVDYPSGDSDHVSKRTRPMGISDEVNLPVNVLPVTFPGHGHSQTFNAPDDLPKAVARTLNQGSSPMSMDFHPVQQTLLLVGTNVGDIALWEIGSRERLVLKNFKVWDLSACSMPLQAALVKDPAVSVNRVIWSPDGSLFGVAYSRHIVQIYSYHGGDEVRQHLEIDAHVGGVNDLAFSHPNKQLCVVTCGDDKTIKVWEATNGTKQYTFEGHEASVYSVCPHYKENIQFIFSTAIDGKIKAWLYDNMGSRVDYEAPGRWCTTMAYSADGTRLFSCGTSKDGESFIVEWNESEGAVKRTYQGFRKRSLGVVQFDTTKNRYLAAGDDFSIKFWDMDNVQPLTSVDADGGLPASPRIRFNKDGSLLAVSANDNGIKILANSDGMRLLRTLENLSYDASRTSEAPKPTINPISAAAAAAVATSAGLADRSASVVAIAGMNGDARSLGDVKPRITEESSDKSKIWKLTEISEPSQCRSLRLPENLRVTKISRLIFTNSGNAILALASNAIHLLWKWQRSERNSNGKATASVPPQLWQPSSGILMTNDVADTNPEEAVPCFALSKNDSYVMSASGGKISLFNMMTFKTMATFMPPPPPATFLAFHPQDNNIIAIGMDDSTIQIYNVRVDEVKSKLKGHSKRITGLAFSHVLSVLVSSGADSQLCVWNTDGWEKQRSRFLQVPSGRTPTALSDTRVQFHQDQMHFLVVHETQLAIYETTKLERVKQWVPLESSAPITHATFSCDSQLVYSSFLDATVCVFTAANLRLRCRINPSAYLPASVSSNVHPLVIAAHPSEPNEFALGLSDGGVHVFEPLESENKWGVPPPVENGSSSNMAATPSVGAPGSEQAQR

| Molecule | interaction with GhMYC2 (GhMYC2 [1]) | fluorescence with GhMYC2 after applying luciferase substrate (GhMYC2 [2]) | interaction with GhNINJA (GhNINJA) | interaction with GhCOI1 (GhCOI1) | interaction with GhTPL (GhTPL) |
| --- | --- | --- | --- | --- | --- |
| GhJAZ9: cotton JAZ9 protein, sequence SEQ ID No. 2, highest homology to AtJAZ9 (protein) MERDFLGLNSNEPLAVVKDDVNTDKYKQIGFTKSSGIQWPFSNKVFAVPQLMNFNFAQGDKTKKTGYDSKVSPLFMPISTMDASELQKSFNHNWNGGGHFSLTDSHVQHNTNMFPASNQTISVSGSNPFVKNHFTTTGQNFPANTIKPQFLGGVPVTTPHSVLPTLGTVGGSVEPCAQTSGSPAQLTIFYAGEVNVFDDITPEKAQAIMFLAGNGSSMASNSAYPKPPVQTPILKPVQVDSVPANQLINTQLSFGMPSPLPVSSHAGMQSWSGSTSTEEQIICKASVPPTPSTPISKLESPNLVNTMGSDAATGMMPSVPQARKASLARFLEKRKGRIMSTASPYNLISKKSLDYATTMESNA | weak | weaker fluorescence | – | – | – |
| GhJAZ1 after deletion of ZIM domain: GhJAZ1 mutant with ZIM domain deleted, protein sequence SEQ ID No. 85 (protein) MSSCSESTAMKPARSPEKPSFAQTCNLLSQYLKEKGSFGDLSLGMTCNVEANGTPVVPPPTMNLFPLNDKSDDVCGRNGGNPKNLTSMDLFPQQAGLASKDDSPNKLEPQTASSSQSNNSFNPIPFTSSIARSPIESSIGVPPTSKPVHPAQRAVPGDLPIARRASLHRFLEKRKDRITAKAPYQINNSAAAPSLSGDNKSWLGLAAQSP | significantly weakened | – | significantly weakened | significantly weakened | – |
| GhJAZ1 after deletion of Jas domain: GhJAZ1 mutant with Jas domain deleted, protein sequence SEQ ID No. 87 (protein) MSSCSESTAMKPARSPEKPSFAQTCNLLSQYLKEKGSFGDLSLGMTCNVEANGTPVVPPPTMNLFPLNDKSDDVCGRNGGNPKNLTSMDLFPQQAGLASKDDSPNKLEPQTAPMTIFYGGQVIVFNDFPANKAKEIMLLASNSSSQSNNSFNPIPFTSSIARSPIESSIGVPPTSKPVHPAQRAVPGNNSAAAPSLSGDNKSWLGLAAQSP | – | – | – | significantly weakened | significantly weakened |
